Assay results: US20210253718A1, “FRIZZLED5 PROTEIN-BINDING AGENTS” (Modmab Therapeutics Corporation, priority 2016, published 2021)
Blank lines part the entries; values can stand above or below the molecule they belong to.

Assays:
Assay in all cases: Flow cytometry of anti-FZD5 Fab binding to CHO cells overexpressing Frizzled CRD
FZD2 CRD = target: T1, FZD2 CRD (Homo sapiens, UniProt Q14332)
T1 construct: D35-P161; GPI anchor signal (C); expressed in transfected cells; host or cells: CHO cells, lentiviral pLenti-puro
Method: (§1) Plasmids: pLCKO lentiviral vector used for knockout (TKO) library construction and expression of individual gRNAs was constructed as described previously (Hart et al., 2015). Briefly, single guide RNA (sgRNA) scaffold was amplified from px330 (Addgene 42230) and cloned into pLKO.TRC005 lentiviral vector (Broad Institute, Cambridge, Mass.) using AgeI/EcoRI restriction sites. BfuAI sites were added at the 5′ end of the sgRNA scaffold for cloning the TKO library or individual gRNA target sequences. Lenti Cas9-2A-BsdR vector used to generate Cas9 stable expression cell lines was constructed as described previously (Hart et al., 2015). Briefly, lentiCRISPR pXPR_001 (Addgene 49535) was modified through removal of the sgRNA scaffold region through NdeI/EcoRI digest and blunt ends generation using Large Klenow Fragment (NEB). 2A-puro was replaced with 2A-BsdR by PCR using the NheI/MluI sites. Each of the 10 human Frizzled cysteine rich domains (CRDs) were cloned into the lentiviral expression plasmid pLenti-puro in the following cassette: FZD_CRD-MYC-GPI.
(§2) Flow cytometry: Primary staining of cells was performed by treatment with 200 nM Frizzled profiler Fab. Alexa Fluor 488 AffiniPure F(ab′)2 was used as the secondary antibody (Jackson ImmunoResearch #109-546-097). c-Myc (9E10) IgG1 (primary antibody, Santa Cruz, lot #D0306) and Alexa Fluor 488 IgG (secondary antibody, Life technologies, lot #1458649) were used as controls. Dead cells were excluded by staining with Fixable Viability Dye eFluor 660 (eBioscience, catalogue number 65-0864). All reagents were used as per manufacturer's instructions. Flow cytometry was performed on a BD FACSCanto II flow cytometer (BD Biosciences), and data were analyzed with FlowJo software (FlowJo, LLC).
(§3) To confirm that the FZD5-WNT7B circuit is not driven simply by expression and rule out the possibility of a disconnect between RNA and protein levels for the Wnt receptors in HPAF-II cells, a panel of recombinant Fabs were generated, alternatively referred to herein as ‘Frizzled profiler’, that can detect and discriminate all but one of the ten Frizzled receptors. […] To characterize the binding specificity of these Fabs on cells, a panel of 10 CHO cell lines was generated, each expressing the CRD domain of a different myc-tagged Frizzled family member anchored at the plasma membrane through a GPI anchor (CHO-myc-FZDGPI). Despite the high sequence identity between Frizzled family members (FIG. 7A, FIG. 7B), selective Fabs were identified for FZD4, FZD5, FZD6 and FZD10 as assessed by immunofluorescence and flow cytometry (FIG. 7D and FIG. 8). […] The FZD8 CRD is most homologous to that of FZD5 (FIG. 7B). These Fabs can be used to discriminate expression of FZD1, FZD2, FZD4, FZD5, FZD6, FZD7, FZD8, FZD9 and FZD10 (FIG. 7D and FIG. 8). The ‘Frizzled profiler’ therefore consists of 10 different Fabs that can be used to discriminate expression of 9 different Frizzled family members. The Frizzled profiler was then used to confirm that HPAF-II cells express FZD1, FZD5, FZD6 and possibly FZD8 (FIG. 7E).
(§4) The binding of anti-FZD5 Fabs to cell surface-expressed Frizzled protein was further determined for each member of the Frizzled family via flow cytometry and immunofluorescence analysis of a panel of 10 CHO cell lines, each ectopically over-expressing the extracellular cysteine-rich domain (CRD) of a different Frizzled protein family member.

FZD4 CRD = target: T2, FZD4 CRD (Homo sapiens, UniProt Q9ULV1)
T2 construct: E42-V167; GPI anchor signal (C); expressed in transfected cells; host or cells: CHO cells, lentiviral pLenti-puro
T2 sequence (Q9ULV1 42-167): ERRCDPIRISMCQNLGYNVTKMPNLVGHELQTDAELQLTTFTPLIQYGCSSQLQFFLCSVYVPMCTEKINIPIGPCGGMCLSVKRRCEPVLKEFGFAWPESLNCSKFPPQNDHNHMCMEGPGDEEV
Method: as §1, §2, §3, §4

FZD1 CRD = target: T3, FZD1 CRD (Homo sapiens, UniProt Q9UP38)
T3 construct: D112-P238; GPI anchor signal (C); expressed in transfected cells; host or cells: CHO cells, lentiviral pLenti-puro
Method: as §1, §2, §3, §4

B1: Fab-2901: anti-FZD5 Fab with antibody variable region Fv-2901; CDR SEQ ID NOs: 35, 36, 40, 79, 116, 154 (antibody, V domains shown)
VH: EVQLVESGGGLVQPGGSLRLSCAASGFNISYSYMHWVRQAPGKGLEWVASIYSYSSYTYYADSVKGRFTISADTSKNTAYLQMNSLRAEDTAVYYCARSWYYWSPSSGMDYWGQGTLVTVSS
VL: DIQMTQSPSSLSASVGDRVTITCRASQSVSSAVAWYQQKPGKAPKLLIYSASSLYSGVPSRFSGSRSGTDFTLTISSLQPEDFATYYCQQGGFLITFGQGTKVEIK
Median fluorescence, Frizzled CRD overexpressed on CHO cells: FZD2 (FZD2 CRD): 13.95

B2: Fab-2899: anti-FZD5 Fab with antibody variable region Fv-2899; CDR SEQ ID NOs: 35, 36, 38, 77, 114, 153 (antibody, V domains shown)
VH: EVQLVESGGGLVQPGGSLRLSCAASGFNLYYYYMHWVRQAPGKGLEWVASIYPSSGSTSYADSVKGRFTISADTSKNTAYLQMNSLRAEDTAVYYCARGALDYWGQGTLVTVSS
VL: DIQMTQSPSSLSASVGDRVTITCRASQSVSSAVAWYQQKPGKAPKLLIYSASSLYSGVPSRFSGSRSGTDFTLTISSLQPEDFATYYCQQWYSSYGLITFGQGTKVEIK
Median fluorescence, Frizzled CRD overexpressed on CHO cells: FZD4 (FZD4 CRD): 11.86

B3: Fab-2910: anti-FZD5 Fab with antibody variable region Fv-2910; CDR SEQ ID NOs: 35, 36, 49, 88, 125, 162 (antibody, V domains shown)
VH: EVQLVESGGGLVQPGGSLRLSCAASGFNISYSYMHWVRQAPGKGLEWVASIYSSSSSTSYADSVKGRFTISADTSKNTAYLQMNSLRAEDTAVYYCARGAMDYWGQGTLVTVSS
VL: DIQMTQSPSSLSASVGDRVTITCRASQSVSSAVAWYQQKPGKAPKLLIYSASSLYSGVPSRFSGSRSGTDFTLTISSLQPEDFATYYCQQWYGSHLITFGQGTKVEIK
Median fluorescence, Frizzled CRD overexpressed on CHO cells: FZD1 (FZD1 CRD): 6.67

B5: Fab-2903: anti-FZD5 Fab with antibody variable region Fv-2903; CDR SEQ ID NOs: 35, 36, 42, 81, 118, 155 (antibody, V domains shown)
VH: EVQLVESGGGLVQPGGSLRLSCAASGFNLSYYYIHWVRQAPGKGLEWVASIYPYSSYTSYADSVKGRFTISADTSKNTAYLQMNSLRAEDTAVYYCARGAIDYWGQGTLVTVSS
VL: DIQMTQSPSSLSASVGDRVTITCRASQSVSSAVAWYQQKPGKAPKLLIYSASSLYSGVPSRFSGSRSGTDFTLTISSLQPEDFATYYCQQWGGGSSLFTFGQGTKVEIK
Median fluorescence, Frizzled CRD overexpressed on CHO cells: FZD2 (FZD2 CRD): 10.84

B7: Fab-2902: anti-FZD5 Fab with antibody variable region Fv-2902; CDR SEQ ID NOs: 35, 36, 41, 80, 117, 153 (antibody, V domains shown)
VH: EVQLVESGGGLVQPGGSLRLSCAASGFNISYYYIHWVRQAPGKGLEWVASISSSSSSTSYADSVKGRFTISADTSKNTAYLQMNSLRAEDTAVYYCARGALDYWGQGTLVTVSS
VL: DIQMTQSPSSLSASVGDRVTITCRASQSVSSAVAWYQQKPGKAPKLLIYSASSLYSGVPSRFSGSRSGTDFTLTISSLQPEDFATYYCQQWYAFGALITFGQGTKVEIK
Median fluorescence, Frizzled CRD overexpressed on CHO cells: FZD4 (FZD4 CRD): 10.27

B9: Fab-2906: anti-FZD5 Fab with antibody variable region Fv-2906; CDR SEQ ID NOs: 35, 36, 45, 84, 121, 158 (antibody, V domains shown)
VH: EVQLVESGGGLVQPGGSLRLSCAASGFNFSSSSIHWVRQAPGKGLEWVAYISSSYGYTYYADSVKGRFTISADTSKNTAYLQMNSLRAEDTAVYYCARTVRGSKKPYFSGWAMDYWGQGTLVTVSS
VL: DIQMTQSPSSLSASVGDRVTITCRASQSVSSAVAWYQQKPGKAPKLLIYSASSLYSGVPSRFSGSRSGTDFTLTISSLQPEDFATYYCQQWSWGFLITFGQGTKVEIK
Median fluorescence, Frizzled CRD overexpressed on CHO cells: FZD4 (FZD4 CRD): 12.3

B11: Fab-2918: anti-FZD5 Fab with antibody variable region Fv-2918; CDR SEQ ID NOs: 35, 36, 57, 96, 133, 169 (antibody, V domains shown)
VH: EVQLVESGGGLVQPGGSLRLSCAASGFNLSYSSIHWVRQAPGKGLEWVASIYSSYSSTSYADSVKGRFTISADTSKNTAYLQMNSLRAEDTAVYYCARFGYWAIDYWGQGTLVTVSS
VL: DIQMTQSPSSLSASVGDRVTITCRASQSVSSAVAWYQQKPGKAPKLLIYSASSLYSGVPSRFSGSRSGTDFTLTISSLQPEDFATYYCQQAFGASLFTFGQGTKVEIK
Median fluorescence, Frizzled CRD overexpressed on CHO cells: FZD1 (FZD1 CRD): 11.97

Now from value to molecule:

Median fluorescence, Frizzled CRD overexpressed on CHO cells: FZD2 (FZD2 CRD): 6.61
B4: Fab-2934: anti-FZD5 Fab with antibody variable region Fv-2934; CDR SEQ ID NOs: 35, 36, 73, 110, 149, 155 (antibody, V domains shown)
VH: EVQLVESGGGLVQPGGSLRLSCAASGFNISYSYMHWVRQAPGKGLEWVASIYSSSGSTSYADSVKGRFTISADTSKNTAYLQMNSLRAEDTAVYYCARGAIDYWGQGTLVTVSS
VL: DIQMTQSPSSLSASVGDRVTITCRASQSVSSAVAWYQQKPGKAPKLLIYSASSLYSGVPSRFSGSRSGTDFTLTISSLQPEDFATYYCQQWYHYGLITFGQGTKVEIK

Median fluorescence, Frizzled CRD overexpressed on CHO cells: FZD2 (FZD2 CRD): 9.39
B6: Fab-2932: anti-FZD5 Fab with antibody variable region Fv-2932; CDR SEQ ID NOs: 35, 36, 71, 108, 147, 153 (antibody, V domains shown)
VH: EVQLVESGGGLVQPGGSLRLSCAASGFNISYSYMHWVRQAPGKGLEWVASIYSSYSSTSYADSVKGRFTISADTSKNTAYLQMNSLRAEDTAVYYCARGALDYWGQGTLVTVSS
VL: DIQMTQSPSSLSASVGDRVTITCRASQSVSSAVAWYQQKPGKAPKLLIYSASSLYSGVPSRFSGSRSGTDFTLTISSLQPEDFATYYCQQWYGSFALITFGQGTKVEIK

Median fluorescence, Frizzled CRD overexpressed on CHO cells: FZD1 (FZD1 CRD): 7.64
B8: Fab-2929: anti-FZD5 Fab with antibody variable region Fv-2929; CDR SEQ ID NOs: 35, 36, 68, 106, 144, 162 (antibody, V domains shown)
VH: EVQLVESGGGLVQPGGSLRLSCAASGFNISYYYIHWVRQAPGKGLEWVASIYPSSSSTSYADSVKGRFTISADTSKNTAYLQMNSLRAEDTAVYYCARGAMDYWGQGTLVTVSS
VL: DIQMTQSPSSLSASVGDRVTITCRASQSVSSAVAWYQQKPGKAPKLLIYSASSLYSGVPSRFSGSRSGTDFTLTISSLQPEDFATYYCQQWYSSYGLITFGQGTKVEIK

Median fluorescence, Frizzled CRD overexpressed on CHO cells: FZD2 (FZD2 CRD): 9.82
B10: Fab-2933: anti-FZD5 Fab with antibody variable region Fv-2933; CDR SEQ ID NOs: 35, 36, 72, 109, 148, 177 (antibody, V domains shown)
VH: EVQLVESGGGLVQPGGSLRLSCAASGFNLYSSYMHWVRQAPGKGLEWVASIYSSYGYTSYADSVKGRFTISADTSKNTAYLQMNSLRAEDTAVYYCARTVRGSKKPYFSGWAMDYWGQGTLVTVSS
VL: DIQMTQSPSSLSASVGDRVTITCRASQSVSSAVAWYQQKPGKAPKLLIYSASSLYSGVPSRFSGSRSGTDFTLTISSLQPEDFATYYCQQFWWYASWLFTFGQGTKVEIK
